Test results as given in patent US20060292634A1 (CATCHMABS B V, published 2006).
Residue numbers refer to the chain shown, from its start.

B1: iMab1302 (designed binder)
chain: VVKVVIKPSQNFIENGEDKKFTCRASGYTIGPKCIGWFSQNPEDDSTNVATINMGGGITYYGDSVKERFDIRRDNAKDTSTLSIDDAQPEDAGIYKCAADSTIYASYYECGHGLSTGGYGYDSEATVGVDIFVKLM
notes: not shown: C-terminal linker, VSV-tag and 6xHis-tag from vector CM126
B2: iMab1202 (designed binder)
chain: IVKLVMEKRGNFENGQDCKLTIRASGYTIGPACDGFFCQFPSDDSFSTEDNMGGGITVNDAMKPQFDIRRDNAKGTWTLSMDFQPEGIYEMQCAADSTIYASYYECGHGLSTGGYGYDNPVRLGGFDVDVPDV
notes: also called iMab1202 (1EJ6); not shown: C-terminal linker, VSV-tag and 6xHis-tag from vector CM126
B3: iMab122 (designed binder)
chain: NVKLVEKGGNFVENDDDLKLTCRASGRTFSSRTMGWFRQAPNDDSTNVATIRWNGGSTYYTNYGDSVKERFDIRVDQASNTVTLSMDDLQPEDSAEYNCAGTDIGDGWSGRYDYRGQGTDVTVSS
notes: as for B1
B4: iMab1300 (designed binder)
chain: LQVDIKPSQGEISVGESKFFLCQASGYTIGPCISWFSPNGEKLNMGSSTLTIYNANIDDAGIYKCAADSTIYASYYECGHGLSTGGYGYQSEATVNVKIFQ
notes: as for B1
B5: iMab1602 (designed binder)
chain: AVKPVIGSKAPNFGENGDVKTIDRASGYTIGPTCGGVFFQGPTDDSTNVATINMGGGITYYGDSVKETFDIRRDNAKSTRTESYDDNQPEGLTEVKCAADSTIYASYYECGHGLSTGGYGYDVSSRLYGYDILVGTQ
notes: as for B1
B6: iMab111 (designed binder)
chain: NVKLVCKGGNFVENDDDLKLTCRAEGYTIGPYCMGWFRQAPNDDSTNVATINMGGGITYYGDSVKERFDIRRDNASNTVTLSMDDLQPEDSAEYNCAGDSTIYASYYECGHGLSTGGYGYDSHYRCQGTDVTVSS
notes: as for B1
B7: iMab115 (designed binder)
chain: B6 chain with C6E, N74Q, C126G
notes: Expressed in E. coli (21 kD); also called iMab without glycosylation site

Assays:
chicken lysozyme [1] = biological target: T1, chicken lysozyme (chicken, UniProt P00698 19-147); assay: ELISA, lysozyme-coated well (100 µg/ml), ~50 ng iMab per well, anti-VSV-HRP; urea-purified
T1 construct: Coated on ELISA plates (100 µg/ml) or immobilized on / passed over Eupergit columns

chicken lysozyme [2] = biological target: T1, chicken lysozyme; assay: ELISA on lysozyme, 100-fold dilution of the protein extract
Method: The microtiter plate was excessively washed with PBS (3 times), PBS+0.1% Tween-20 (3 times) and PBS (3 times).
After excessive washing using PBS (3 times), PBS+0.1% Tween-20 (3 times) and PBS (3 times), wells were incubated with 100 μl Turbo-TMB for 5 minutes. Reaction was stopped with 100 μl 2M H₂SO₄ and absorbtion was read at 450 nm using a microtiter plate reader (Biorad).

chicken lysozyme [3] = biological target: T1, chicken lysozyme; assay: ELISA

T1 sequence (P00698 19-147 limits assumed): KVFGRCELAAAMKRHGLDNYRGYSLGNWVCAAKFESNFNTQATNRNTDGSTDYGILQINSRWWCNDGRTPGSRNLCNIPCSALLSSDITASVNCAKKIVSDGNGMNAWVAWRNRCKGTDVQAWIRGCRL

Row | binding result (chicken lysozyme [3]) | Binder | Absorbtion (450 nm) (chicken lysozyme [1]) [A450] | ELISA signal over background signal (fold) (chicken lysozyme [2])
1 | – | B1 | 0.345 | –
2 | – | B2 | 0.317 | –
3 | – | B3 | 0.271 | –
4 | – | B4 | 0.325 | –
5 | – | B5 | 0.357 | –
6 | – | B6 | 0.42 | ~20
7 | binds | B7 | – | –
